Assay results from paper PMC7909569, “Unique Cellular and Biochemical Features of Human Mitochondrial Peroxiredoxin 3 Establish the Molecular Basis for Its Specific Reaction with Thiostrepton” (Antioxidants, 2021).

How the values were obtained:
[1] = target: the molecule itself; assay: SEC-MALS; engineered dimers, reduced (10 mM DTT) or oxidized (1.2 equivalents H2O2), 2 mg/mL, all pH values tested (7.0, 7.5, 8.0)
[2] = target: the molecule itself; assay: SEC-MALS; peroxide titration: pre-reduced PRX2 (100 µM), pH 7.4, 100 µM H2O2 (1 equivalence, fully oxidized)
[3] = target: the molecule itself; assay: SEC-MALS; oxidized samples (1.2 equivalents of H2O2), 2 mg/mL PRX, 50 mM HEPES, 100 mM NaCl, pH 8.0; (do)decamer against dimers
[4] = target: the molecule itself; assay: SEC-MALS; peroxide titration: pre-reduced PRX3 (93 µM), DTT removed, pH 8.0, 0 H2O2 (fully reduced)
[5] = target: the molecule itself; assay: SEC-MALS; oxidized samples (1.2 equivalents of H2O2), 2 mg/mL PRX, 50 mM HEPES, 100 mM NaCl, pH 7.5; (do)decamer against dimers
[6] = target: the molecule itself; assay: SEC-MALS; reduced samples (10 mM DTT), 2 mg/mL (90–93 µM) PRX, 50 mM HEPES, 100 mM NaCl, pH 7.0, 7.5 or 8.0 (PRX3 only pH 7.5 and 8.0); TSK Gel 4000 SW column run without reducing agents; (do)decamer against dimers

B1: PRX2-T82E (enzyme, human, UniProt P32119 1-198, looked up)
chain: MASGNARIGKPAPDFKATAVVDGAFKEVKLSDYKGKYVVLFFYPLDFTFVCPTEIIAFSNRAEDFRKLGCEVLGVSVDSQFEHLAWINTPRKEGGLGPLNIPLLADVTRRLSEDYGVLKTDEGIAYRGLFIIDGKGVLRQITVNDLPVGRSVDEALRLVQAFQYTDEHGEVCPAGWKPGSDTIKPNVDDSKEYFSKHN
notes: peroxiredoxin 2 (PRX2), human, with T82E in the dimer-dimer interface; The methods call the N-terminal His-tag non-cleavable; also called engineered dimer of PRX2; dimeric version of PRX2
stoichiometry N [1]: 2

B2: Wild-type human PRX2 (enzyme, UniProt P32119 1-198, looked up)
chain: MASGNARIGKPAPDFKATAVVDGAFKEVKLSDYKGKYVVLFFYPLDFTFVCPTEIIAFSNRAEDFRKLGCEVLGVSVDSQFTHLAWINTPRKEGGLGPLNIPLLADVTRRLSEDYGVLKTDEGIAYRGLFIIDGKGVLRQITVNDLPVGRSVDEALRLVQAFQYTDEHGEVCPAGWKPGSDTIKPNVDDSKEYFSKHN
notes: peroxiredoxin 2 (PRX2), human, wild type, untagged, no extra residues; Tested reduced (DTT) and oxidised to the disulfide (H2O2); also called peroxiredoxin 2; WT PRX2
stoichiometry N [2]: 10
stoichiometry N [3]: 2

B3: Untagged wild-type PRX3 (residues 62–256) (enzyme, human, UniProt P30048 62-256, looked up)
chain: APAVTQHAPYFKGTAVVNGEFKDLSLDDFKGKYLVLFFYPLDFTFVCPTEIVAFSDKANEFHDVNCEVVAVSVDSHFSHLAWINTPRKNGGLGHMNIALLSDLTKQISRDYGVLLEGSGLALRGLFIIDPNGVIKHLSVNDLPVGRSVEETLRLVKAFQYVETHGEVCPANWTPDSPTIKPSPAASKEYFQKVNQ
notes: peroxiredoxin 3 (PRX3), human, mitochondrial, residues 62–256, wild type, untagged; Stored oxidised to the disulfide (1.5 equivalents H2O2); tested reduced, partially oxidised and oxidised; also called peroxiredoxin 3; mitochondrial peroxiredoxin 3; not shown: Intein, N-terminal, cleaved
stoichiometry N [4]: 12
stoichiometry N [5]: 2

B4: PRX3-S139E/A142E (enzyme, human, UniProt P30048 62-256, looked up)
chain: APAVTQHAPYFKGTAVVNGEFKDLSLDDFKGKYLVLFFYPLDFTFVCPTEIVAFSDKANEFHDVNCEVVAVSVDSHFEHLEWINTPRKNGGLGHMNIALLSDLTKQISRDYGVLLEGSGLALRGLFIIDPNGVIKHLSVNDLPVGRSVEETLRLVKAFQYVETHGEVCPANWTPDSPTIKPSPAASKEYFQKVNQ
notes: peroxiredoxin 3 (PRX3), human, with S139E and A142E in the dimer-dimer interface; The wild-type construct is residues 62–256; The methods call the N-terminal His-tag non-cleavable; also called engineered dimer of PRX3; PRX3 EE
stoichiometry N [1]: 2

B5: Wild-type human PRX1 (enzyme, UniProt Q06830 1-199, looked up)
chain: MSSGNAKIGHPAPNFKATAVMPDGQFKDISLSDYKGKYVVFFFYPLDFTFVCPTEIIAFSDRAEEFKKLNCQVIGASVDSHFCHLAWVNTPKKQGGLGPMNIPLVSDPKRTIAQDYGVLKADEGISFRGLFIIDDKGILRQITVNDLPVGRSVDETLRLVQAFQFTDKHGEVCPAGWKPGSDTIKPDVQKSKEYFSKQK
notes: peroxiredoxin 1 (PRX1), human, wild type, untagged, no extra residues; Tested reduced (DTT) and oxidised to the disulfide (H2O2); also called peroxiredoxin 1; WT PRX1
stoichiometry N [6]: 10

B6: PRX1 C83E (enzyme, human, UniProt Q06830 1-199, looked up)
chain: MSSGNAKIGHPAPNFKATAVMPDGQFKDISLSDYKGKYVVFFFYPLDFTFVCPTEIIAFSDRAEEFKKLNCQVIGASVDSHFEHLAWVNTPKKQGGLGPMNIPLVSDPKRTIAQDYGVLKADEGISFRGLFIIDDKGILRQITVNDLPVGRSVDETLRLVQAFQFTDKHGEVCPAGWKPGSDTIKPDVQKSKEYFSKQK
notes: peroxiredoxin 1 (PRX1), human, with C83E in the dimer-dimer interface, untagged; also called engineered dimer of PRX1; dimeric version of PRX1
stoichiometry N [1]: 2
